Experimental data from patent US20110206702A1 (Genentech, published 2011).

Target: T1, TAT419 polypeptide (human, UniProt P24530 27-442)
T1 construct: Full-length TAT419 on transfected cells (e.g. 293 cells) or on TAT419-expressing human melanoma cell lines; also called full-length TAT419 polypeptide; cell surface expressed TAT419 polypeptide
T1 sequence: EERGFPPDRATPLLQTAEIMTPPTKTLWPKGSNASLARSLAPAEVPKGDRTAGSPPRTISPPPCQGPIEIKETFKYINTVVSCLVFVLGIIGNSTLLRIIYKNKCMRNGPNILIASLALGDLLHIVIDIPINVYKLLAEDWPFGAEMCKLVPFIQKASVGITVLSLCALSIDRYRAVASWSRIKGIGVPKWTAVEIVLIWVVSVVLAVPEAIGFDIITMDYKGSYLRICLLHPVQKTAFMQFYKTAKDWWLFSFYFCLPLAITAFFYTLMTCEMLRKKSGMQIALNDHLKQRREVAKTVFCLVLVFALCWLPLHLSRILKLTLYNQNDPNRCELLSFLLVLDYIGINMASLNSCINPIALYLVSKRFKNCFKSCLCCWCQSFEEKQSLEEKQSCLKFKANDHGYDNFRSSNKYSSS
Assay: Western blots, TAT419-derived peptide variants expressed in 293 cells
Protocol: Binding analysis was also conducted to identify the approximate location of the epitopes. Several TAT419-derived peptide variants were expressed in 293 cells. Western blots were carried out using various of the murine anti-TAT419 monoclonal antibodies described herein.

B1: humanized anti-TAT419 antibody hu5E9.v1 (antibody, human IgG1, kappa, V domains shown)
VH: EVQLVESGGGLVQPGGSLRLSCAASGYTFTSYWMQWVRQAPGKGLEWIGTIYPGDGDTSYAQKFKGRATLSTDKSKNTAYLQMNSLRAEDTAVYYCARWGYAYDIDNWGQGTLVTVSS
VL: DIQMTQSPSSLSASVGDRVTITCKSSQSLLDSDGKTYLNWLQQKPGKAPKRLIYLVSKLDSGVPSRFSGSGSGTDFTLTISSLQPEDFATYYCWQGTHFPYTFGQGTKVEIKR
- binding result: binds

B2: murine anti-TAT419 monoclonal antibody 5E9 (antibody, mouse IgG2a, kappa, V domains shown)
VH: QVQLLQSGAELARPGASVKLSCKASGYTFTSYWMQWVKQRPGQGLEWIGTIYPGDGDTSYAQKFKGKATLTTDKYSSTAYMQLSSLASEDSAVYYCARWGYAYDIDNWGQGTTVTVSS
VL: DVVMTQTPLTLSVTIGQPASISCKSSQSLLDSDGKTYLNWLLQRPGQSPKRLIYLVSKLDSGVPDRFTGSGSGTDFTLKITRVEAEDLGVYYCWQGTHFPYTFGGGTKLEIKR
notes: also called murine 5E9
- binding result: binds
